From paper PMC2569942

Target: prophagic Cu,Zn superoxide dismutase SodC-F1 of E. coli O157:H7 (soluble recombinant mature enzyme from pO157-ΔCys) (E. coli O157:H7 EDL933)
Assay: SEC

“prophagic Cu,Zn superoxide dismutase SodC-F1 of E. coli O157:H7 (soluble recombinant mature enzyme from pO157-ΔCys)” showed a stoichiometry N of 2.
